OD450, Mean fluorescence intensity and Inhibition ratio (%) data for one substance are collected here from patent US20220033501A1.

The target of assay [1] is human TIM-3 extracellular domain protein with hFc tag (hTIM-3-hFc) (human) (UniProt Q8TDQ0). Briefly: ELISA, coated human TIM-3 ECD protein, 0.0001 nM antibody.
Assay [2] has the same target. Briefly: ELISA, coated human TIM-3 ECD protein, 0 nM antibody.
In assay [3] the target is human TIM-3 on CHOK1 stable cell line (CHOK1-hTIM-3) (human) (UniProt Q8TDQ0). Briefly: FACS, CHOK1-hTIM-3 cells, 8 nM antibody.
Assay [4] shares this target. Briefly: FACS, CHOK1-hTIM-3 cells, 40 nM antibody.
Assay [5] addresses monkey TIM-3 extracellular domain protein with hFc tag (cTIM-3-hFc) (monkey). The assay is described as follows: ELISA, coated monkey TIM-3 ECD protein, 0 nM antibody.
The target in assay [6] is human TIM-3 extracellular domain protein with hFc tag (hTIM-3-hFc) (human) (UniProt Q8TDQ0). The assay is described as follows: FACS, blocking of hTIM-3-hFc binding to phosphatidylserine on apoptotic Jurkat cells, 200 nM antibody.
The target of assay [7] is monkey TIM-3 extracellular domain protein with hFc tag (cTIM-3-hFc) (monkey). The assay is described as follows: ELISA, coated monkey TIM-3 ECD protein, 66.667 nM antibody.
For assay [8], the target named is human TIM-3 on CHOK1 stable cell line (CHOK1-hTIM-3) (human) (UniProt Q8TDQ0). The assay is described as follows: FACS, CHOK1-hTIM-3 cells, 0.013 nM antibody.
Assay [9] has as its target human TIM-3 extracellular domain protein with hFc tag (hTIM-3-hFc) (human) (UniProt Q8TDQ0). Briefly: ELISA, coated human TIM-3 ECD protein, 66.667 nM antibody.
For assay [10] the target is unchanged. Briefly: FACS, blocking of hTIM-3-hFc binding to phosphatidylserine on apoptotic Jurkat cells, 0.823 nM antibody.
In assay [11] the target is monkey TIM-3 on CHOK1 stable cell line (CHOK1-cTIM-3) (monkey). The assay is described as follows: FACS, CHOK1-cTIM-3 cells, 0.064 nM antibody.
In assay [12] the target is human TIM-3 on CHOK1 stable cell line (CHOK1-hTIM-3) (human) (UniProt Q8TDQ0). The assay is described as follows: FACS, CHOK1-hTIM-3 cells, 0.064 nM antibody.
The target in assay [13] is human TIM-3 extracellular domain protein with hFc tag (hTIM-3-hFc) (human) (UniProt Q8TDQ0). The assay is described as follows: ELISA, coated human TIM-3 ECD protein, 6.6667 nM antibody.
Assay [14] deals with monkey TIM-3 on CHOK1 stable cell line (CHOK1-cTIM-3) (monkey). The assay is described as follows: FACS, CHOK1-cTIM-3 cells, 0.32 nM antibody.
For assay [15], the target named is murine TIM-3 extracellular domain protein with hFc tag (mTIM-3-hFc) (mouse) (UniProt Q8VIM0). The assay is described as follows: ELISA, coated mouse TIM-3 ECD protein, 0.0001 nM antibody.
The target in assay [16] is monkey TIM-3 extracellular domain protein with hFc tag (cTIM-3-hFc) (monkey). The assay is described as follows: ELISA, coated monkey TIM-3 ECD protein, 6.6667 nM antibody.
The target of assay [17] is human TIM-3 extracellular domain protein with hFc tag (hTIM-3-hFc) (human) (UniProt Q8TDQ0). Briefly: FACS, blocking of hTIM-3-hFc binding to phosphatidylserine on apoptotic Jurkat cells, 0 nM antibody.
Assay [18] shares this target. The assay is described as follows: ELISA, coated human TIM-3 ECD protein, 0.0667 nM antibody.

Sequence of monkey TIM-3 extracellular domain protein with hFc tag (cTIM-3-hFc) (monkey) (chain, as listed by the source): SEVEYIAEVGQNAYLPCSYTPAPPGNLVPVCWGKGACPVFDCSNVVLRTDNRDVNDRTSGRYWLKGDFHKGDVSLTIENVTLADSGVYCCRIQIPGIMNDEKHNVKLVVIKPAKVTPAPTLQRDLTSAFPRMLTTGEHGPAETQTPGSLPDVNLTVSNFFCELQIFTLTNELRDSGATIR
Sequence of human TIM-3 extracellular domain protein with hFc tag (hTIM-3-hFc) (human) (Q8TDQ0 22-200): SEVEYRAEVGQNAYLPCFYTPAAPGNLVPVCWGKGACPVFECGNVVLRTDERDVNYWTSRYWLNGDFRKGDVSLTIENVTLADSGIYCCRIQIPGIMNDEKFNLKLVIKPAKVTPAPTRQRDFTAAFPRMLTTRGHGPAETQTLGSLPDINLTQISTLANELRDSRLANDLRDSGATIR
Sequence of human TIM-3 on CHOK1 stable cell line (CHOK1-hTIM-3) (human) (Q8TDQ0 22-301 limits assumed): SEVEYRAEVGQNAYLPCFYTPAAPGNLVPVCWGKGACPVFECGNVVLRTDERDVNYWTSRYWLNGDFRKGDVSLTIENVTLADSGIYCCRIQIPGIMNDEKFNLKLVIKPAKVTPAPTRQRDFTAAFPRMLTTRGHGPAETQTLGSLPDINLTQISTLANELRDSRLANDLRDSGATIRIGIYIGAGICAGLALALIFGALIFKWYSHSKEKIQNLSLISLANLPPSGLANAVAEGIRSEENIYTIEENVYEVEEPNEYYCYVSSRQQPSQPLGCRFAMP
Sequence of monkey TIM-3 on CHOK1 stable cell line (CHOK1-cTIM-3) (monkey) (chain, as listed by the source limits assumed): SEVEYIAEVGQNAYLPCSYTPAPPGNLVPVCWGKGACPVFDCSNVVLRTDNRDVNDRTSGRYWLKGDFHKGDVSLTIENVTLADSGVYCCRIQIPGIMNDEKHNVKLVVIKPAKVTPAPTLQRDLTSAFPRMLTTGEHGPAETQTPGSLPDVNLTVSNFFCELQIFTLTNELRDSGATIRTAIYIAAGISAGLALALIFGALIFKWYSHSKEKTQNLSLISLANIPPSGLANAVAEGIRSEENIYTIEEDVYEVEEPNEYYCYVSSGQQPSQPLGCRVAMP
Sequence of murine TIM-3 extracellular domain protein with hFc tag (mTIM-3-hFc) (mouse) (Q8VIM0 other isoform, or with tags, fused parts or gaps): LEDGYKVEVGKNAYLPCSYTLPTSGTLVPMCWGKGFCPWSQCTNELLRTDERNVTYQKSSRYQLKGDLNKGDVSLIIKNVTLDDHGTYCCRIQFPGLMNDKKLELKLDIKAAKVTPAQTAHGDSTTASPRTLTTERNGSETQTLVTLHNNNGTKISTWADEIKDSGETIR

As to human IgG control (antibody), the OD450 in assay [1] was determined as 0.07; in [2], 0.07; in assay [5] it was 0.13; in [7] it was 0.43; in assay [9], 0.14; in [13] it was 0.08. Besides, the OD450 in assay [15] worked out at 0.22; in assay [16], 0.18; in assay [18], 0.07. Further, the Mean fluorescence intensity turned out to be 4.5 in assay [3]; 5 in assay [4]; 2.8 in [8]; 2.9 in assay [11]; 2.8 in assay [12]; 3.1 in assay [14]. The figures for the Inhibition ratio (%) in assay [6], in assay [10] and in assay [17] were -7.8%, 2.8% and -2.5%, respectively.
